{
  "source": "paper PMC9496542",
  "proteins": {"B1": {"name": "N-myc downstream-regulated gene 1 protein, C-terminal intrinsically disordered region (hNDRG1*C) (Homo sapiens) (protein)", "chain": "GMGYMPSASMTRLMRSRTASGSSVTSLDGTRSRSHTSEGTRSRSHTSEGTRSRSHTSEGAHLDITPNSGAAGNSAGPKSMEVSC"}},
  "experiment_in_all_cases": "NMR",
  "conditions_in_all_cases": "298 K, 150 mM NaCl, 20 mM HEPES, 1 mM TCEP (working buffer), apo (no Ni(II)), intrinsically disordered, Cys394 reduced",
  "key": {"[1]": {"molecular_target": "His355 (UniProt position 355, …)"}, "[2]": {"molecular_target": "His365 (UniProt position 365, …)"}, "[3]": {"molecular_target": "His345 (UniProt position 345, …)"}, "[4]": {"molecular_target": "His371 (UniProt position 371, …)"}},
  "data": [
    {"protein": "B1", "values": [
      {"measurement": "pKa", "setting": "[1]", "result": 6.65},
      {"measurement": "pKa", "setting": "[2]", "result": 6.72},
      {"measurement": "pKa", "setting": "[3]", "result": 6.65},
      {"measurement": "pKa", "setting": "[4]", "result": 6.84}
    ]}
  ]
}
